assay: soluble on expression in E. coli; label from the status in PepcDB or PDB records

Soluble on expression in E. coli, not soluble:
MGSDKIHHHHHHMWFKNLQLHRFSAPWSPSADEVEASLAKHAFFPGTSLEMQTQGWASPRDNGQLVHAVGRQMLLTLRTEKKLLPATVVNQVTKARAAEVEEQQGYKPGRKQLRELKEQVTEELLPRAFSIRRDTRVWIDPDNGWLAIDAASTAKADEVRGMLFKALDALPLANLHVNQSPVAAMTDWLSTDVAPAGFTVDQEIELQSGSESKATVRYVRHPLDAEDLRRHISGGKRCTRLAMTWNDRVSFVLTDSLAIKRVAPLDVIKEQADGTVSDEDERFDADFTLMAGELAGMLGDLTEALGGERKA, MLRRYSHFYSIRYSSTLLSTLDGLTNRTSGDKLLTYSEKFSKLYANSTPETRKSIFVDLVTNYGVNKEALNHAISLYSKNDQMYPEVRTSATASYVNLIKSIGNLPGGVMQVCEMRANILALLKRETDKTTTSYLRHIELATREVLTSWFSLGNLKLERLTWSSPGDILQKVAEYEAVHPVRGLSDFRKRLGPLRRCFYFSHEALPRNPLVMVHVALVDEIADSVQEITKRGAPTGKEEDQTTAIYYSITSTQPGLSGIDLGNMLIKKVATKLQKDVPSVTTHSTLSPIPGFRPWLIRNLKGNSEYPSIMNEKVVNWISDISEREMNEVEATETLLKVISNEKTKKEQLNAIQHILMYACAHYLCNAKRNGMALNSVANFHIRNGAELYRLNWNGDTSHRGINNSFGIMVNYRYDLEKVHENSAAYTEHKKMAINQKVLDIF, MKSHVTDLTETLSSMEISRLEQQLTDFEAKKGSQIALLIIPTTQPETIEQYSIQVAEVWKLGRKGIDDGVLLLVAKNDRTLRIETGYGLEGVLPDALARRIIDEIIVPKFRQGHFFGGLQAGVEQIISIIEGETLPESLEHHHHHH

Soluble on expression in E. coli, soluble:
GLVPRGSHMMEILRGSPALSAFRINKLLARFQAANLQVHNIYAEYVHFADLNAPLNDSEQAQLTRLLQYGPALSSHTPAGKLLLVTPRPGTISPWSSKATDIAHNCGLQQVDRLERGVAYYIEASTLTAEQWRQVAAELHDRMMETVFSSLTDAEKLFIHHQPAPVSSVDLLGEGRQALIDANLRLGLALAEDEIDYLQEAFTKLGRNPNDIELYMFAQANSEHCRHKIFNADWIIDGKPQPKSLFKMIKNTFETTPDYVLSAYKDNAAVMEGSAVGRYFADHNTGRYDFHQEPAHILMKVETHNHPTAISPWPGAATGSGGEIRDEGATGRGAKPKAGLVGFSVSNLRIPGFEQPWEEDFGKPERIVTALDIMTEGPLGGAAFNNEFGRPALTGYFRTYEEKVNSHNGEELRGYHKPIMLAGGIGNIRADHVQKGEIVVGAKLIVLGGPAMNIGLGGGAASSMASGQSDADLDFASVQRDNPEMERRCQEVIDRCWQLGDANPILFIHDVGAGGLSNAMPELVSDGGRGGKFELRDILSDEPGMSPLEIWCNESQERYVLAVAADQLPLFDELCKRERAPYAVIGDATEEQHLSLHDNHFDNQPIDLPLDVLLGKTPKMTRDVQTLKAKGDALNRADITIADAVKRVLHLPTVAEKTFLVTIGDRTVTGMVARDQMVGPWQVPVADCAVTTASLDSYYGEAMSIGERAPVALLDFAASARLAVGEALTNIAATQIGDIKRIKLSANWMAAAGHPGEDAGLYDAVKAVGEELCPQLGLTIPVGKDSMSMKTRWQEGNEQREMTSPLSLVISAFARVEDVRHTLTPQLSTEDNALLLIDLGKGHNALGATALAQVYRQLGDKPADVRDVAQLKGFYDAMQALVAARKLLAWHDRSDGGLLVTLAEMAFAGHCGVQVDIAALGDDHLAALFNEELGGVIQVRAEDRDAVEALLAQYGLADCVHYLGQALAGDRFVITANDQTVFSESRTTLRVWWAETTWQMQRLRDNPQCADQEHEAKANDTDPGLNVKLSFDINEDIAAPYIATGARPKVAVLREQGVNSHVEMAAAFHRAGFDAIDVHMSDLLGGRIGLGNFHALVACGGFSYGDVLGAGEGWAKSILFNHRVRDEFETFFHRPQTLALGVCNGCQMMSNLRELIPGSELWPRFVRNHSDRFEARFSLVEVTQSPSLLLQGMVGSQMPIAVSHGEGRVEVRDDAHLAALESKGLVALRYVDNFGKVTETYPANPNGSPNGITAVTTENGRVTIMMPHPERVFRTVANSWHPENWGEDSPWMRIFRNARKQLG, MTEMIRPRVKYVIGPDGSPLTIADLPPANTRRWVIRRKAEVVAAVRGGLLSLEEACERYTLTVEEFLSWQSSISDHGLAGLRTTRIQQYRHAAALEHHHHHH, WNIHGKESCDVQLYIKRQSEHSILAGDPFELECPVKYCANRPHVTWCKLNGTTCVKLEDRQTSWKEEKNISFFILHFEPVLPNDNGSYRCSANFQSNLIESHSTTLYVTDVKHHHHHHHH
